Laboratory results: patent US20250320281A1

What was measured:
WT JR-FL gp120 (HIV-1) = experiment: ELISA, antigen-coated wells
[1] = molecular target: HIV-1 Env of pseudovirus isolate MGRM-G-016 (HIV-1); experiment: cell-based or functional assay
[2] = molecular target: HIV-1 Env of pseudovirus isolate MGRM-G-004 (HIV-1); experiment: cell-based or functional assay
[3] = molecular target: HIV-1 Env of pseudovirus isolate MGRM-G-013 (HIV-1); experiment: cell-based or functional assay
[4] = molecular target: HIV-1 Env of isolate MGRM-C-002 (HIV-1); experiment: cell-based or functional assay
[5] = molecular target: HIV-1 Env of isolate MGRM-C-023 (HIV-1); experiment: cell-based or functional assay
[6] = molecular target: HIV-1 Env of isolate MGRM-C-008 (HIV-1); experiment: cell-based or functional assay
[7] = molecular target: HIV-1 Env of isolate MGRM-C-019 (HIV-1); experiment: cell-based or functional assay
[8] = molecular target: HIV-1 NL43 Env (pseudovirus) (HIV-1); experiment: cell-based or functional assay
[9] = molecular target: HIV-1 94UG103 Env (pseudovirus) (HIV-1); experiment: cell-based or functional assay
[10] = molecular target: HIV-1 Env of isolate MGRM-C-001 (HIV-1); experiment: cell-based or functional assay
[11] = molecular target: HIV-1 JRCSF Env (pseudovirus) (HIV-1) (UniProt P20871); experiment: cell-based or functional assay
[12] = molecular target: HIV-1 MGRM-D-018 Env (pseudovirus) (HIV-1); experiment: cell-based or functional assay
[13] = molecular target: envelope of aMLV pseudovirus (negative control); experiment: cell-based or functional assay
[14] = molecular target: HIV-1 Env of isolate MGRM-C-007 (HIV-1); experiment: cell-based or functional assay
[15] = molecular target: HIV-1 Env of isolate MGRM-C-012 (HIV-1); experiment: cell-based or functional assay
[16] = molecular target: HIV-1 Env of isolate MGRM-C-025 (HIV-1); experiment: cell-based or functional assay
[17] = molecular target: HIV-1 MGRM-C-027 Env (pseudovirus) (HIV-1); experiment: cell-based or functional assay
[18] = molecular target: HIV-1 Env of isolate MGRM-C-009 (HIV-1); experiment: cell-based or functional assay
[19] = molecular target: HIV-1 MGRM-C-028 Env (pseudovirus) (HIV-1); experiment: cell-based or functional assay
[20] = molecular target: HIV-1 APV6 Env (pseudovirus) (HIV-1); experiment: cell-based or functional assay
[21] = molecular target: HIV-1 Env of isolate MGRM-C-014 (HIV-1); experiment: cell-based or functional assay
[22] = molecular target: HIV-1 92UG005 Env (pseudovirus) (HIV-1); experiment: cell-based or functional assay
[23] = molecular target: HIV-1 Env of isolate MGRM-C-024 (HIV-1); experiment: cell-based or functional assay
[24] = molecular target: HIV-1 Env of pseudovirus isolate MGRM-G-017 (HIV-1); experiment: cell-based or functional assay
[25] = molecular target: HIV-1 93IN905 Env (pseudovirus) (HIV-1); experiment: cell-based or functional assay
[26] = molecular target: HIV-1 Env of pseudovirus isolate MGRM-G-014 (HIV-1); experiment: cell-based or functional assay
[27] = molecular target: HIV-1 MGRM-A-010 Env (pseudovirus) (HIV-1); experiment: cell-based or functional assay
[28] = molecular target: HIV-1 Env of isolate MGRM-C-005 (HIV-1); experiment: cell-based or functional assay
[29] = molecular target: HIV-1 Env of pseudovirus isolate MGRM-G-006 (HIV-1); experiment: cell-based or functional assay
[30] = molecular target: HIV-1 Env of isolate MGRM-C-015 (HIV-1); experiment: cell-based or functional assay
[31] = molecular target: HIV-1 Env of isolate MGRM-C-010 (HIV-1); experiment: cell-based or functional assay
[32] = molecular target: HIV-1 CMU02 Env (pseudovirus) (HIV-1); experiment: cell-based or functional assay
[33] = molecular target: HIV-1 Env of isolate MGRM-C-006 (HIV-1); experiment: cell-based or functional assay
[34] = molecular target: HIV-1 Env of pseudovirus isolate MGRM-G-027 (HIV-1); experiment: cell-based or functional assay
[35] = molecular target: HIV-1 Env of pseudovirus isolate MGRM-G-011 (HIV-1); experiment: cell-based or functional assay
[36] = molecular target: HIV-1 Env of isolate MGRM-C-004 (HIV-1); experiment: cell-based or functional assay
[37] = molecular target: HIV-1 Env of pseudovirus isolate MGRM-G-019 (HIV-1); experiment: cell-based or functional assay
[38] = molecular target: HIV-1 Env of pseudovirus isolate MGRM-G-015 (HIV-1); experiment: cell-based or functional assay
[39] = molecular target: HIV-1 Env of isolate MGRM-C-013 (HIV-1); experiment: cell-based or functional assay
[40] = molecular target: HIV-1 Env of pseudovirus isolate MGRM-G-001 (HIV-1); experiment: cell-based or functional assay
[41] = molecular target: HIV-1 Env of pseudovirus isolate MGRM-G-009 (HIV-1); experiment: cell-based or functional assay
[42] = molecular target: HIV-1 Env of isolate MGRM-C-020 (HIV-1); experiment: cell-based or functional assay
[43] = molecular target: HIV-1 Env of isolate MGRM-C-022 (HIV-1); experiment: cell-based or functional assay
[44] = molecular target: HIV-1 Env of isolate MGRM-C-017 (HIV-1); experiment: cell-based or functional assay
[45] = molecular target: HIV-1 92RW020 Env (pseudovirus) (HIV-1); experiment: cell-based or functional assay
[46] = molecular target: HIV-1 92TH021 Env (pseudovirus) (HIV-1); experiment: cell-based or functional assay
[47] = molecular target: HIV-1 92UG024 Env (pseudovirus) (HIV-1); experiment: cell-based or functional assay
[48] = molecular target: HIV-1 MGRM-C-026 Env (pseudovirus) (HIV-1); experiment: cell-based or functional assay

## 5123_A06 (PGT-125) (antibody)
WT JR-FL gp120 (HIV-1)
  EC50: 0.2 mg/L
[1]
  IC50 (µg/mL), pseudovirus neutralization: > 50 µg/mL
[2]
  IC50 (µg/mL), pseudovirus neutralization: > 50 µg/mL
[3]
  IC50 (µg/mL), pseudovirus neutralization: > 50 µg/mL
[4]
  neutralization IC50: 0.008 mg/L
[5]
  neutralization IC50: 1.31 mg/L
[6]
  neutralization IC50: > 50 mg/L
[7]
  neutralization IC50: 0.13 mg/L
[8]
  neutralization IC50 (pseudovirus): > 10 mg/L
[9]
  neutralization IC50 (pseudovirus): 0.0124 mg/L
[10]
  neutralization IC50: > 50 mg/L
[11]
  neutralization IC50 (pseudovirus): 0.006 mg/L
[12]
  neutralization IC50 (pseudovirus): 0.0382 mg/L
[13]
  IC50 (µg/mL), pseudovirus neutralization: > 50 µg/mL
[14]
  neutralization IC50: > 50 mg/L
[15]
  neutralization IC50: > 50 mg/L
[16]
  neutralization IC50: 42.5 mg/L
[17]
  neutralization IC50 (pseudovirus): > 10 mg/L
[18]
  neutralization IC50: > 50 mg/L
[19]
  neutralization IC50 (pseudovirus): 5.78 mg/L
[20]
  neutralization IC50 (pseudovirus): 0.0359 mg/L
[21]
  neutralization IC50: > 50 mg/L
[22]
  neutralization IC50 (pseudovirus): > 10 mg/L
[23]
  neutralization IC50: > 50 mg/L
[24]
  IC50 (µg/mL), pseudovirus neutralization: > 50 µg/mL
[25]
  neutralization IC50 (pseudovirus): 0.0137 mg/L
[26]
  IC50 (µg/mL), pseudovirus neutralization: 0.007 µg/mL
[27]
  neutralization IC50 (pseudovirus): 0.0055 mg/L
[28]
  neutralization IC50: 2.09 mg/L
[29]
  IC50 (µg/mL), pseudovirus neutralization: > 50 µg/mL
[30]
  neutralization IC50: > 50 mg/L
[31]
  neutralization IC50: > 50 mg/L
[32]
  neutralization IC50 (pseudovirus): > 10 mg/L
[33]
  neutralization IC50: 0.015 mg/L
[34]
  IC50 (µg/mL), pseudovirus neutralization: 34.4 µg/mL
[35]
  IC50 (µg/mL), pseudovirus neutralization: > 50 µg/mL
[36]
  neutralization IC50: 1.82 mg/L
[37]
  IC50 (µg/mL), pseudovirus neutralization: > 50 µg/mL
[38]
  IC50 (µg/mL), pseudovirus neutralization: > 50 µg/mL
[39]
  neutralization IC50: > 50 mg/L
[40]
  IC50 (µg/mL), pseudovirus neutralization: 0.033 µg/mL
[41]
  IC50 (µg/mL), pseudovirus neutralization: > 50 µg/mL
[42]
  neutralization IC50: > 50 mg/L
[43]
  neutralization IC50: 1.23 mg/L
[44]
  neutralization IC50: 2.36 mg/L
[45]
  neutralization IC50 (pseudovirus): 0.0028 mg/L
[46]
  neutralization IC50 (pseudovirus): 0.0066 mg/L
[47]
  neutralization IC50 (pseudovirus): > 10 mg/L
[48]
  neutralization IC50 (pseudovirus): 0.0106 mg/L

## 5141_B17 (PGT-126) (antibody)
WT JR-FL gp120 (HIV-1)
  EC50: 0.1 mg/L
[1]
  IC50 (µg/mL), pseudovirus neutralization: > 50 µg/mL
[2]
  IC50 (µg/mL), pseudovirus neutralization: > 50 µg/mL
[3]
  IC50 (µg/mL), pseudovirus neutralization: 48.8 µg/mL
[4]
  neutralization IC50: 0.011 mg/L
[5]
  neutralization IC50: 0.065 mg/L
[6]
  neutralization IC50: 2.12 mg/L
[7]
  neutralization IC50: 0.006 mg/L
[8]
  neutralization IC50 (pseudovirus): > 10 mg/L
[9]
  neutralization IC50 (pseudovirus): 0.0091 mg/L
[10]
  neutralization IC50: > 50 mg/L
[11]
  neutralization IC50 (pseudovirus): 0.0061 mg/L
[12]
  neutralization IC50 (pseudovirus): 0.0093 mg/L
[13]
  IC50 (µg/mL), pseudovirus neutralization: > 50 µg/mL
[14]
  neutralization IC50: 25.3 mg/L
[15]
  neutralization IC50: 0.111 mg/L
[16]
  neutralization IC50: 0.786 mg/L
[17]
  neutralization IC50 (pseudovirus): 1.14 mg/L
[18]
  neutralization IC50: > 50 mg/L
[19]
  neutralization IC50 (pseudovirus): 0.283 mg/L
[20]
  neutralization IC50 (pseudovirus): 0.0249 mg/L
[21]
  neutralization IC50: > 50 mg/L
[22]
  neutralization IC50 (pseudovirus): 0.0181 mg/L
[23]
  neutralization IC50: > 50 mg/L
[24]
  IC50 (µg/mL), pseudovirus neutralization: > 50 µg/mL
[25]
  neutralization IC50 (pseudovirus): 0.0194 mg/L
[26]
  IC50 (µg/mL), pseudovirus neutralization: 0.009 µg/mL
[27]
  neutralization IC50 (pseudovirus): 0.0033 mg/L
[28]
  neutralization IC50: 0.298 mg/L
[29]
  IC50 (µg/mL), pseudovirus neutralization: > 50 µg/mL
[30]
  neutralization IC50: 3.14 mg/L
[31]
  neutralization IC50: > 50 mg/L
[32]
  neutralization IC50 (pseudovirus): > 10 mg/L
[33]
  neutralization IC50: 0.014 mg/L
[34]
  IC50 (µg/mL), pseudovirus neutralization: 0.875 µg/mL
[35]
  IC50 (µg/mL), pseudovirus neutralization: 7.32 µg/mL
[36]
  neutralization IC50: 0.033 mg/L
[37]
  IC50 (µg/mL), pseudovirus neutralization: 0.018 µg/mL
[38]
  IC50 (µg/mL), pseudovirus neutralization: > 50 µg/mL
[39]
  neutralization IC50: > 50 mg/L
[40]
  IC50 (µg/mL), pseudovirus neutralization: 0.038 µg/mL
[41]
  IC50 (µg/mL), pseudovirus neutralization: > 50 µg/mL
[42]
  neutralization IC50: > 50 mg/L
[43]
  neutralization IC50: 0.96 mg/L
[44]
  neutralization IC50: 0.17 mg/L
[45]
  neutralization IC50 (pseudovirus): 0.0046 mg/L
[46]
  neutralization IC50 (pseudovirus): 0.115 mg/L
[47]
  neutralization IC50 (pseudovirus): > 10 mg/L
[48]
  neutralization IC50 (pseudovirus): 0.0076 mg/L
